Test results from patent US20190169232A1 (FEINSTEIN INSTITUTES FOR MEDICAL RESEARCH, published 2019).

What was measured:
[1] = target: T1, RAGE on human monocytes (human, UniProt Q15109 23-404); assay: proximity ligation assay on human monocytes, condition without C1q
T1 construct: whole, on cells

[2] = target: T2, C1q purified from pooled normal human sera (human, UniProt P02746 28-253; P02747 29-245); assay: SPR kinetics, C1q immobilised on a CM5 chip, HMGB1 redox form as analyte in a concentration series, 1:1 fit
T2 construct: mature; Bought from Complement Technology, purified from serum; It names no B or C chains; Biotinylated for the bead assay; also called human C1q; first component of complement
T2 sequence (P02746 28-253, chain 2 of 2): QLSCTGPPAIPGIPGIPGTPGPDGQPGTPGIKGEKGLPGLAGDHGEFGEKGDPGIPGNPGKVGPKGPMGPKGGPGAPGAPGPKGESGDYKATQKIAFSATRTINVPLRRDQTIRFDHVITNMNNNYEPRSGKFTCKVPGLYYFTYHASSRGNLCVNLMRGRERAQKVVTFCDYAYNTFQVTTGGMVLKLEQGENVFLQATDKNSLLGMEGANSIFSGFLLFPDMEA
T2 sequence (P02747 29-245, chain 3 of 2): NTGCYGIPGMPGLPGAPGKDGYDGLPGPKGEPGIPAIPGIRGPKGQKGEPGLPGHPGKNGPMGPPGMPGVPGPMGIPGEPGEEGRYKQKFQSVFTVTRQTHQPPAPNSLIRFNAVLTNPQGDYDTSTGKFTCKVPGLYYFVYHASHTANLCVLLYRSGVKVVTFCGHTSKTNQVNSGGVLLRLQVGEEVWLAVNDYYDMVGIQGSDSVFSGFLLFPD
Protocol: A 1:1 mixture of N-hyrdoxysuccinimide and N-ethyl-N-(dimethyaminopropyl) carbodiimide was used to activate 2 flow-cells of the CM5 chip. […] The analyte (HMGB1) was diluted in 1× HBS-N+0.05% tween-20 buffer (filtered—0.22 um). Three redox states of HMGB1 were sequentially injected at a flow rate of 20 μl/min for 60 s at 25° C., the dissociation time was set for 3 minutes. […]

[3] = target: T2, C1q purified from pooled normal human …; assay: SPR (BIAcore T200), HMGB1 immobilized on a CM5 chip, C1q as analyte at 5 concentrations, 1:1 fit
Protocol: Surface Plasmon Resonance analysis (SPR): For real-time binding interaction studies, a BIAcore T200 instrument (GE Healthcare) was used. […] A 1:1 mixture of N-hydroxysuccinimide and N-ethyl-N-(dimethyaminopropyl) carbodiimide was used to activate 2 flow-cells of the CM5 chip. […] The analytes were diluted in 1× PBS+0.01% (vol/vol) tween-20 buffer. The analytes were sequentially injected at a flow rate of 30 μl/min for 60 s at 25° C. The KD was determined using the BIAcore evaluation software 2.0 (GE Healthcare) supposing a 1:1 binding ratio.

[4] = target: T3, Human recombinant RAGE (hrRAGE), soluble RAGE (human, UniProt Q15109 24-344, limits assumed); assay: SPR (data not shown)
T3 construct: Called soluble RAGE (sRAGE) in the SPR and bead experiments; also called sRAGE; Receptor for Advanced Glycation Endproducts
T3 sequence (Q15109 24-344 limits assumed): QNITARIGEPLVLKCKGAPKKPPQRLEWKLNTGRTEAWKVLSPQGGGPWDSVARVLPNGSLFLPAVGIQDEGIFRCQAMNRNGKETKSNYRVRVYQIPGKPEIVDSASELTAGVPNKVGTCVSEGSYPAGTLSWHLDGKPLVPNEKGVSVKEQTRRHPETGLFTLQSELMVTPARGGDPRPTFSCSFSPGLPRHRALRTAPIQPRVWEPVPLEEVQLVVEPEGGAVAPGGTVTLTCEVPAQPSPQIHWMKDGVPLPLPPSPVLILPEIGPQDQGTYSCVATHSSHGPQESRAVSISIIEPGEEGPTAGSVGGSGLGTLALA

T1 sequence (Q15109 23-404): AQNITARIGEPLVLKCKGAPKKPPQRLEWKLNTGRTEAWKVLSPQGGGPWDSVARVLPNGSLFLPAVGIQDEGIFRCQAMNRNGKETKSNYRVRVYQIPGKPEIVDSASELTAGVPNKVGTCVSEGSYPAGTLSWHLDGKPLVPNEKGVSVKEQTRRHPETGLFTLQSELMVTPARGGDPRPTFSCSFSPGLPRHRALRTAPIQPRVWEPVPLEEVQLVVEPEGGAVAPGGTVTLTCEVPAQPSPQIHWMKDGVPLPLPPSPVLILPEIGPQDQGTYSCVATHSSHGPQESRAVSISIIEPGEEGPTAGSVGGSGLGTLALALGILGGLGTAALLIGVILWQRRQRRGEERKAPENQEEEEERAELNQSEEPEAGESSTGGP

B1: LAIR-1 on human monocytes (receptor, UniProt Q6GTX8 22-287, looked up)
chain: QEEDLPRPSISAEPGTVIPLGSHVTFVCRGPVGVQTFRLERDSRSTYNDTEDVSQASPSESEARFRIDSVREGNAGLYRCIYYKPPKWSEQSDYLELLVKESSGGPDSPDTEPGSSAGPTQRPSDNSHNEHAPASQGLKAEHLYILIGVSVVFLFCLLLLVLFCLHRQNQIKQGPPRSKDEEQKPQQRPDLAVDVLERTADKATVNGLPEKDRETDTSALAAGSSQEVTYAQLDHWALTQRTARAVSPQSTKPMAESITYAAVARH
notes: whole, on cells; also called Leukocyte-Associated Ig-like Receptor 1; CD305
[1]
  binding result: no binding

B2: Disulfide HMGB1 (ligand, UniProt P09429 1-215, looked up)
chain: MGKGDPKKPRGKMSSYAFFVQTCREEHKKKHPDASVNFSEFSKKCSERWKTMSAKEKGKFEDMAKADKARYEREMKTYIPPKGETKKKFKDPNAPKRPPSAFFLFCSEYRPKIKGEHPGLSIGDVAKKLGEMWNNTAADDKQPYEKKAAKLKEKYEKDIAAYRAKGKPDAAKKGVVKAEKSKKKKEEEEDEEDEEDEEEEEDEEDEDEEEDDDDE
modifications: disulfide bond between C23 and C45, with a free cysteine at C106
notes: also called disulfide form of HMGB1
[2]
  Kd: 210 nM

B3: Recombinant HMGB1 (Calmodulin Binding Protein Epitope, Cbp tagged) (ligand, human, UniProt P09429 1-215, looked up, not shown: small tags and cut ends)
chain: B2 chain
notes: also called High Mobility Group Box 1
[3]
  Kd: 200 nM

B4: All-thiol HMGB1 (ligand, not shown: small tags and cut ends)
chain: B2 chain
modifications: All-thiol form: C23, C45 and C106 all stand as free reduced thiols, with no C23-C45 disulfide. The letters are unchanged.
notes: Analyte in the SPR assays on immobilised C1q; also called reduced HMGB1
[2]
  Kd: 1060 nM

B5: C1q tail (C1q collagen-like tail) purified from whole C1q (other)
chain 1: EDLCRAPDGKKGEAGRPGRRGRPGLKGEQGEPGAPGIRTGIQGLKGDQGEPGPSGNPGKVGYPGPSGPLGARGIPGIKGTKGSPGNI
chain 2: not shown
chain 3: not shown
notes: domain: collagen-like tail; Fragment prepared from whole serum C1q 'as previous described (22)'; also called C1q collagen tail
[4]
  binding result: no binding
